Laboratory results: PMC4284802, “The tumour suppressor DLC2 ensures mitotic fidelity by coordinating spindle positioning and cell–cell adhesion” (Nature Communications, 2014)

Molecular target: T1, His-tagged recombinant protein containing the forkhead-associated (FHA) domain of Kif1B (residues 367-999) (human, UniProt O60333-2 367-999)
T1 construct: cloned into pRSET-A; Vector pRSET-A; also called Kif1B FHA domain; His-Kif1B; source: E. coli BL21pLysS, purified
T1 sequence (looked up): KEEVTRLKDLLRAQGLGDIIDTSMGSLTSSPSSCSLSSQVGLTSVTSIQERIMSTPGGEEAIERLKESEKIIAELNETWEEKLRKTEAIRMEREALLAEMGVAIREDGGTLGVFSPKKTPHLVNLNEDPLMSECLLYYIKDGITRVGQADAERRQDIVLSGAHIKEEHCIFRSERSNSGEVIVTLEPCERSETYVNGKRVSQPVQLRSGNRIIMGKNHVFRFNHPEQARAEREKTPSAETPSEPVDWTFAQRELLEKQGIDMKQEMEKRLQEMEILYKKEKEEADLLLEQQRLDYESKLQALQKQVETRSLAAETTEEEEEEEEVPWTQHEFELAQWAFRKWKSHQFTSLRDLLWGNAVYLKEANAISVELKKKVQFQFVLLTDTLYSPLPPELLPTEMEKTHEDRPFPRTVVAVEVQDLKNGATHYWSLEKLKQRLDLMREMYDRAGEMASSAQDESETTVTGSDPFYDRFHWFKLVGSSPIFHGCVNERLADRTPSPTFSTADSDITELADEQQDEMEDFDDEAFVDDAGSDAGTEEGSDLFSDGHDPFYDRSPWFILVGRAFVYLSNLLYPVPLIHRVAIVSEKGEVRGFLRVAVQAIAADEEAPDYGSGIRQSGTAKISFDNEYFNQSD
Assay: pull-down; purified GST-SAM domain on glutathione-agarose beads incubated 2 h with recombinant His-tagged Kif1B fusion proteins; immunoblot with anti-GST and anti-His
Details: both partners purified

binding result: binds
B1: DLC2 SAM domain (residues 1-130) fused to GST (domain or fragment, human, UniProt Q9Y3M8-1 1-130, looked up)
chain: MFSQVPRTPASGCYYLNSMTPEGQEMYLRFDQTTRRSPYRMSRILARHQLVTKIQQEIEAKEACDWLRAAGFPQYAQLYEDSQFPINIVAVKNDHDFLEKDLVEPLCRRLNTLNKCASMKLDVNFQRKKG
notes: cloned into pGEX4T3; Vector pGEX4T3; also called SAM domain construct; GST-fusion protein containing the SAM domain; source: E. coli BL21pLysS, purified (glutathione-agarose)
